One test has as its target Active MMP-2. Kind of test: enzyme inhibition (fluorogenic substrate, Ki by the Morrison equation); Active MMP-2 (0.76 nM) with FLAG-TIMP-1 or FLAG-T2G (0.17 to 13.5 nM), 2 h at 27 C; 50 mM Tris-HCl pH 7.5, 150 mM NaCl, 5 mM CaCl2; substrate MCA-Pro-Leu-Gly-Leu-Dpa-Ala-Arg-NH2.
For test [1], the target named is Endogenous LRP-1 of mouse cortical neurons (alpha-chain and beta-chain) (mouse (endogenous in primary cortical neurons)).
Test [2] shares this target. The source holds these as a separate data set.
In test [3] the target is HA-tagged mini LRP-IV (LRP-1 mini-receptor with ligand-binding domain IV).
Test [4] concerns the target HA-tagged mini LRP-II (LRP-1 mini-receptor with ligand-binding domain II).
Test [5] concerns the target Recombinant human LRP-1 Fc-tagged mini-domain II (human). Kind of test: SPR; Fc-DII or Fc-DIV captured by anti-Fc antibody immobilised on a CMD500m chip (around 8 fmol/mm^2); TIMP-1 or EGF 5 to 80 nM injected sequentially (single-cycle kinetics, 2 min at 50 ul/min); 25 C; HBS (50 mM HEPES-NaOH pH 7.4, 150 mM NaCl, 0.005% Tween-20); corrected for Fc-coated flow cell and blank run; 1:1 titration kinetic model; Biacore T200. (Surface plasmon resonance follows binding to a sensor surface in real time, without labels.)

Test [6] deals with Recombinant human LRP-1 Fc-tagged mini-domain IV (human). Described as above.

Results on four substances are retold here after publication PMC4116228.

Broadly, the Ki is the equilibrium dissociation constant of an inhibitor or competing ligand from its target. Regarding “FLAG-tagged full-length TIMP-1 T2G mutant (from UniProt P01033 24-207) (natural protein)”, the inhibition constant Ki with Active MMP-2 was 18.9 nM.
In test [1], “FLAG-tagged wild type TIMP-1 (from UniProt P01033 24-207) (natural protein)” had a growth cone volume of cortical neurons after 30 min with 10 nM TIMP-1; the increase is prevented by RAP or blocking LRP-1 antibodies of 2.8 fold. Besides, the Ki in the test with Active MMP-2 came out at 0.09 nM.
In test [2], “Fluorescent TIMP-1 (eFluor-conjugated recombinant TIMP-1) (from UniProt P01033 24-207) (natural protein)” had an inhibition by 500 nM RAP of the internalisation of fluo-TIMP-1 by cortical neurons (37 C, pronase-resistant fluorescence) of 2 fold. This substance also came in with an internalisation of surface-bound fluo-TIMP-1 (10 nM) by DIV-overexpressing CHO cells after 2 h at 37 C (pronase-resistant fluorescence); significantly impeded by 500 nM RAP in test [3] of 50%. Also, in test [4], the internalisation of surface-bound fluo-TIMP-1 (10 nM) by DII-overexpressing CHO cells after 2 h at 37 C (pronase-resistant fluorescence); significantly impeded by 500 nM RAP was 50%.
Broadly, the Kd is the concentration at which binding is half-saturated. For orientation: koff means a measure of how fast the partners let go of each other. As usually defined, the kon is a measure of how fast the partners come together. Consider “Human recombinant TIMP-1 (tissue inhibitor of metalloproteinases-1) (from UniProt P01033 24-207) (natural protein)”, for which, in test [5], the Kd was 11.2 nM, the off-rate (koff) stood at 0.021 s⁻¹ and the on-rate constant (kon) was found to be 1.87e+06 M⁻¹ s⁻¹. For the same substance, in test [6], the dissociation constant (Kd) turned out to be 52.4 nM, the koff amounted to 0.0135 s⁻¹ and the kon was found to be 255000 M⁻¹ s⁻¹.
